Common to all, as to test: cross-linking; BMOE (0.64 mM) cross-linking of engineered cysteine pairs; 0.7 uM cohesin (Smc1, Smc3, and Scc1) and Scc2 in 25 mM HEPES pH 7.5, 50 mM NaCl, 1 mM MgCl2, 1 mM TCEP, 5% glycerol; 24°C, 5 min; with or without 10 mM ATP and 60 nM supercoiled pUC19; SDS-PAGE
Holding throughout (details): both partners purified

Test [1] concerns the target T1, cohesin (Smc1-His E1102C, Smc3, Scc1-StrepII) (S. cerevisiae, UniProt P32908 1-1225; P47037 1-1230; Q12158 1-566, E1102C).
T1 construct: Smc1, cohesin subunit, S. cerevisiae; Smc3, cohesin subunit, S. cerevisiae; Scc1 (kleisin subunit of cohesin), S. cerevisiae; Tied to the cross-linking experiment by its substitution; also called Smc1E1102C; cohesin (Smc1, Smc3, and Scc1); source: prepared as described in Collier et al., 2020 (pACEbac1i plasmid); purified; copies: + +

Test [2] has as its target T2, cohesin (Smc3 K1004C, Smc1, Scc1-StrepII) (S. cerevisiae, UniProt P32908 1-1225; P47037 1-1230; Q12158 1-566, K1004C).
T2 construct: Smc1, cohesin subunit, S. cerevisiae; Smc3, cohesin subunit, S. cerevisiae; Scc1 (kleisin subunit of cohesin), S. cerevisiae; Tied to the cross-linking experiment by its substitution; also called cohesin (Smc1, Smc3, and Scc1); source: prepared as described in Collier et al., 2020 (pACEbac1i plasmid); purified; copies: + +

Test [3] deals with T3, cohesin (Smc1, Smc3 S72C, Scc1-StrepII) (S. cerevisiae, UniProt P32908 1-1225; P47037 1-1230; Q12158 1-566, S72C).
T3 construct: Smc1, cohesin subunit, S. cerevisiae; Smc3, cohesin subunit, S. cerevisiae; Scc1 (kleisin subunit of cohesin), S. cerevisiae; Tied to the cross-linking experiment by its substitution; also called cohesin (Smc1, Smc3, and Scc1); source: prepared as described in Collier et al., 2020 (pACEbac1i plasmid); purified; copies: + +
T3 sequence (P32908 whole entry, chain 1 of 3): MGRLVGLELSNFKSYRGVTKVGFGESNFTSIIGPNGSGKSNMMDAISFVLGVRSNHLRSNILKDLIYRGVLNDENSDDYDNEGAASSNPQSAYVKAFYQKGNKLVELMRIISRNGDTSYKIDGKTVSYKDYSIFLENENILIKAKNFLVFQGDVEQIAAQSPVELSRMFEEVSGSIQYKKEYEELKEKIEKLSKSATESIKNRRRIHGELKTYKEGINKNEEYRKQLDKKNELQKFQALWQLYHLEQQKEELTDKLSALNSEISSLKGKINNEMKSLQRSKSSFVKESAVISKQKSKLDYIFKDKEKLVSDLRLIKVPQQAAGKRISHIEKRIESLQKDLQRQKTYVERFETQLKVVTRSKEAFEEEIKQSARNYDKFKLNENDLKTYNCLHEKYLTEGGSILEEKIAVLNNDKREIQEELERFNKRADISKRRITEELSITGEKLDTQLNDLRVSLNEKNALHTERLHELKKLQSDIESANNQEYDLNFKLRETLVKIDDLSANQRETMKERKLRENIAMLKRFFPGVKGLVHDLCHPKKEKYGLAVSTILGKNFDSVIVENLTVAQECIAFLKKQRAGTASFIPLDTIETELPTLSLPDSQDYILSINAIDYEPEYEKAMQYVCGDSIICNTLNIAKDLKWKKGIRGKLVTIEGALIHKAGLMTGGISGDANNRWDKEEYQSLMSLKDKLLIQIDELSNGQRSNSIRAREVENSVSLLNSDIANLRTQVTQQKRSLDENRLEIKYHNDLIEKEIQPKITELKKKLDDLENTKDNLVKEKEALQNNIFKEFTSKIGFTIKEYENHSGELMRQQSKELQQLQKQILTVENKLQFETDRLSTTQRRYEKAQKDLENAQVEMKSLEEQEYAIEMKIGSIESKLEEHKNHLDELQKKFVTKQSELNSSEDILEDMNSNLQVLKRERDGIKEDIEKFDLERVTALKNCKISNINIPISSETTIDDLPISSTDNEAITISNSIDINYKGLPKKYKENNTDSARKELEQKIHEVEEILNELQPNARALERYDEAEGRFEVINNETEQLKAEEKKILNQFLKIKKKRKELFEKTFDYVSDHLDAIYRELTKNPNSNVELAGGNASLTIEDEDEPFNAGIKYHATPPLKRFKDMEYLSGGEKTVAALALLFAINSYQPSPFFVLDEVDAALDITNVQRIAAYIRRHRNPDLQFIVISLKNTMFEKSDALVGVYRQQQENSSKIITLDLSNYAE
T3 sequence (P47037 whole entry S72C, chain 2 of 3): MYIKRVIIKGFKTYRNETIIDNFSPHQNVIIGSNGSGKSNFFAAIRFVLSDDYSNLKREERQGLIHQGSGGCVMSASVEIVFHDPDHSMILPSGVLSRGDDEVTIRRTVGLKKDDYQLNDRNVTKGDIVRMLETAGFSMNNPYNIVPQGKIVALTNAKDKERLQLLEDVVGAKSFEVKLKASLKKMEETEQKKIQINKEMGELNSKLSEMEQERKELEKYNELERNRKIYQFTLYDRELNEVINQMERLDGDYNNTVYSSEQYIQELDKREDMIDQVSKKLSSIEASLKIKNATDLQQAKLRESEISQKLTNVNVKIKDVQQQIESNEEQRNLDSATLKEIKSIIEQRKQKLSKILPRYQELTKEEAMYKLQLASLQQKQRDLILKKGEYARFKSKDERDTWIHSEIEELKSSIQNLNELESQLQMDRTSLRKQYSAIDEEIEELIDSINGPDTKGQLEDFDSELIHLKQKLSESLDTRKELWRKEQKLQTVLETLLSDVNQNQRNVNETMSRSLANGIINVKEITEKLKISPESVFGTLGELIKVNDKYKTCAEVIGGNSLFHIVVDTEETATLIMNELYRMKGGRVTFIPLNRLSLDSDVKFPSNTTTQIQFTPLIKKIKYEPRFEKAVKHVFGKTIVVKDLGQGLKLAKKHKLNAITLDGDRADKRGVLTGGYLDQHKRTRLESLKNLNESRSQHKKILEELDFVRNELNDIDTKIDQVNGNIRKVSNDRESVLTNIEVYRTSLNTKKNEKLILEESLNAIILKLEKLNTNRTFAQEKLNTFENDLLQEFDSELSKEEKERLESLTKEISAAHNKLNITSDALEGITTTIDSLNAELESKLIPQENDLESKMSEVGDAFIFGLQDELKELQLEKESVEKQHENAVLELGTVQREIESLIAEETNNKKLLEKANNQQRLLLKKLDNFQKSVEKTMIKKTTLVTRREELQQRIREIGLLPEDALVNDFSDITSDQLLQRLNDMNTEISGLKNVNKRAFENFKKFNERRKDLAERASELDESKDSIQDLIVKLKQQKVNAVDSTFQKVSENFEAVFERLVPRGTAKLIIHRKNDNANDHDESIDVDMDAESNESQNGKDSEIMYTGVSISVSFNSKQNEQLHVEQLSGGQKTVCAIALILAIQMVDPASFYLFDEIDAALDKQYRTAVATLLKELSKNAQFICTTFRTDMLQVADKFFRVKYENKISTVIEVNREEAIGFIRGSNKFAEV
T3 sequence (Q12158 whole entry, chain 3 of 3): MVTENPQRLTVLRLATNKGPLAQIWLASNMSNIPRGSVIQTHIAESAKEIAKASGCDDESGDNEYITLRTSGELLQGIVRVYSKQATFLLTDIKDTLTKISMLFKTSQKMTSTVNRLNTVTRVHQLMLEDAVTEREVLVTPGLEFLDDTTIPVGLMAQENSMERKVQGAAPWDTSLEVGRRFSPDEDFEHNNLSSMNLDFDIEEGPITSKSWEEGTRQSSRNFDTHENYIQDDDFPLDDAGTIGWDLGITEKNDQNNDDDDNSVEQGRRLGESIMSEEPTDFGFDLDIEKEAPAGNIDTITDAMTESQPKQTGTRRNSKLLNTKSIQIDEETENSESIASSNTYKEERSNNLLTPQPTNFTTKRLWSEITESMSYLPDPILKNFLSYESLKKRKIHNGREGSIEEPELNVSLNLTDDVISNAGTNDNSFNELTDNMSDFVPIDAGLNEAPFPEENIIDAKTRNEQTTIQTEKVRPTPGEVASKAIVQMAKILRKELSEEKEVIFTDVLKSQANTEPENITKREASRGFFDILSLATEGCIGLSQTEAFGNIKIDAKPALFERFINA

T1 sequence (P32908 whole entry E1102C, chain 1 of 3): as the sequence (P32908 whole entry, chain 1 of 3) above, with E1102C counted along it
T1 sequence (P47037 whole entry, chain 2 of 3): as the sequence (P47037 whole entry S72C, chain 2 of 3) above, with C72S counted along it
T1 sequence (Q12158 whole entry, chain 3 of 3): as the sequence (Q12158 whole entry, chain 3 of 3) above
T2 sequence (P32908 whole entry, stated change not applied, chain 1 of 3): as the sequence (P32908 whole entry, chain 1 of 3) above
T2 sequence (P47037 whole entry K1004C, chain 2 of 3): as the sequence (P47037 whole entry S72C, chain 2 of 3) above, with C72S, K1004C counted along it
T2 sequence (Q12158 whole entry, chain 3 of 3): as the sequence (Q12158 whole entry, chain 3 of 3) above

B1: Scc2 133-1493-StrepII T1281C (domain or fragment, S. cerevisiae, UniProt Q04002 133-1493, looked up)
chain: KSEIVSRPEAKHKLESVTSNAGNLSFNDNSSNKKTKTSTGVTMTQANLAEQYLNDLKNILDIVGFDQNSAEIGNIEYWLQLPNKKFVLTTNCLTKLQMTIKNITDNPQLSNSIEITWLLRLLDVMVCNIKFSKSSLKMGLDDSMLRYIALLSTIVLFNIFLLGKNDSNLHRESYIMEPVNFLSDLIESLKILTIEYGSLKIEFDTFQEALELLPKYIRNGPFLDDNVTAKLVYIFSDLLMNNDIEATTNIQFQSFWDNVKRISSDILVSLFGSFDQQRGFIIEELLSHIEKLPTKRIQKKLRKVGNQNIYITDFTFTLMSMLENINCYSFCNQMKDIAPENIDLLKNEYKKQEEFLFNIVEHINDTILERFFKNPSALRYVIDNFVQDLLLLISSPQWPVTEKILSSLLKRLLSVYSPSMQVSANIETICLQLIGNIGSTIFDIKCSTRDHEDNNLIKMINYPETLPHFFKSFEECIAYNETIKCRRSATRFLWNLRLGTILILEEYTKDAKEQIITVDNELKKILEQIKDGGLGPELENREADFSTIKLDYFSILHAFELLNLYDPYLKLILSLLAKDKIKLRSTAIKCLSMLASKDKVILSNPMVKETIHRRLNDSSASVKDAILDLVSINSSYFEFYQQINNNYNDDSIMVRKHVLRINEKMYDETNDIVTKVYVIARILMKIEDEEDNIIDMARLILLNRWILKVHEVLDQPEKLKEISSSVLLVMSRVAIMNEKCSQLFDLFLNFYLLNKEAHSKEAYDKITHVLTILTDFLVQKIVELNSDDTNEKNSIVDKQNFLNLLAKFADSTVSFLTKDHITALYPYMVSDEKSDFHYYILQVFRCTFEKLANFKQKFLYDLETTLLSRLPKMNVREIDEAMPLIWSVATHRHDTARVAKACSSCLSHLHPYINKANNEEAAIVVDGKLQRLIYLSTGFARFCFPKPSNDKIAFLQEGETLYEHITKCLLVLSKDKITHVIRRVAVKNLTKLCGNHPKLFNSRHVLHLLDKEFQSDQLDIKLVILESLYDLFLLEERKSVRNTGVNSTLSSNSILKKKLLKTNRVEFANDGVCSALATRFLDNILQLCLLRDLKNSLVAIRLLKLILKFGYTNPSHSIPTVIALFASTSQYIRHVAYELLEDLFEKYECLVFSSLSRGVTKAIHYSIHTDEKYYYKHDHFLSLLEKLCGTGKKNGPKFFKVLKRIMQSYLDDITDLTSTNSSVQKSIFVLCTNISNITFVSQYDLVSLLKTIDLTTDRLKEVIMDEIGDNVSSLSVSEEKLSGIILIQLSLQDLGTYLLHLYGLRDDVLLLDIVEESELKNKQLPAKKPDISKFSAQLENIEQYSSNGKLLTYFRKHVKDT
notes: Scc2, cohesin loader subunit, S. cerevisiae, residues 133-1493; pACEbac1 is a baculovirus transfer vector, so insect cells are surmised; also called Scc2T1281C; source: prepared as described in Collier et al., 2020 (pACEbac1 plasmid); purified
As to B1, the binding result in test [1] was “binds”.

B2: Scc2 133-1493-StrepII D369C (domain or fragment, S. cerevisiae, UniProt Q04002 133-1493, looked up)
chain: KSEIVSRPEAKHKLESVTSNAGNLSFNDNSSNKKTKTSTGVTMTQANLAEQYLNDLKNILDIVGFDQNSAEIGNIEYWLQLPNKKFVLTTNCLTKLQMTIKNITDNPQLSNSIEITWLLRLLDVMVCNIKFSKSSLKMGLDDSMLRYIALLSTIVLFNIFLLGKNDSNLHRESYIMEPVNFLSDLIESLKILTIEYGSLKIEFDTFQEALELLPKYIRNGPFLDDNVTAKLVYIFSCLLMNNDIEATTNIQFQSFWDNVKRISSDILVSLFGSFDQQRGFIIEELLSHIEKLPTKRIQKKLRKVGNQNIYITDFTFTLMSMLENINCYSFCNQMKDIAPENIDLLKNEYKKQEEFLFNIVEHINDTILERFFKNPSALRYVIDNFVQDLLLLISSPQWPVTEKILSSLLKRLLSVYSPSMQVSANIETICLQLIGNIGSTIFDIKCSTRDHEDNNLIKMINYPETLPHFFKSFEECIAYNETIKCRRSATRFLWNLRLGTILILEEYTKDAKEQIITVDNELKKILEQIKDGGLGPELENREADFSTIKLDYFSILHAFELLNLYDPYLKLILSLLAKDKIKLRSTAIKCLSMLASKDKVILSNPMVKETIHRRLNDSSASVKDAILDLVSINSSYFEFYQQINNNYNDDSIMVRKHVLRINEKMYDETNDIVTKVYVIARILMKIEDEEDNIIDMARLILLNRWILKVHEVLDQPEKLKEISSSVLLVMSRVAIMNEKCSQLFDLFLNFYLLNKEAHSKEAYDKITHVLTILTDFLVQKIVELNSDDTNEKNSIVDKQNFLNLLAKFADSTVSFLTKDHITALYPYMVSDEKSDFHYYILQVFRCTFEKLANFKQKFLYDLETTLLSRLPKMNVREIDEAMPLIWSVATHRHDTARVAKACSSCLSHLHPYINKANNEEAAIVVDGKLQRLIYLSTGFARFCFPKPSNDKIAFLQEGETLYEHITKCLLVLSKDKITHVIRRVAVKNLTKLCGNHPKLFNSRHVLHLLDKEFQSDQLDIKLVILESLYDLFLLEERKSVRNTGVNSTLSSNSILKKKLLKTNRVEFANDGVCSALATRFLDNILQLCLLRDLKNSLVAIRLLKLILKFGYTNPSHSIPTVIALFASTSQYIRHVAYELLEDLFEKYETLVFSSLSRGVTKAIHYSIHTDEKYYYKHDHFLSLLEKLCGTGKKNGPKFFKVLKRIMQSYLDDITDLTSTNSSVQKSIFVLCTNISNITFVSQYDLVSLLKTIDLTTDRLKEVIMDEIGDNVSSLSVSEEKLSGIILIQLSLQDLGTYLLHLYGLRDDVLLLDIVEESELKNKQLPAKKPDISKFSAQLENIEQYSSNGKLLTYFRKHVKDT
notes: Scc2, cohesin loader subunit, S. cerevisiae, residues 133-1493; also called Scc2D369C; source: prepared as described in Collier et al., 2020 (pACEbac1 plasmid); purified
B2: in test [2], the binding result is given as “binds”.

B3: Scc2 133-1493-StrepII E819C (domain or fragment, S. cerevisiae, UniProt Q04002 133-1493, looked up)
chain: KSEIVSRPEAKHKLESVTSNAGNLSFNDNSSNKKTKTSTGVTMTQANLAEQYLNDLKNILDIVGFDQNSAEIGNIEYWLQLPNKKFVLTTNCLTKLQMTIKNITDNPQLSNSIEITWLLRLLDVMVCNIKFSKSSLKMGLDDSMLRYIALLSTIVLFNIFLLGKNDSNLHRESYIMEPVNFLSDLIESLKILTIEYGSLKIEFDTFQEALELLPKYIRNGPFLDDNVTAKLVYIFSDLLMNNDIEATTNIQFQSFWDNVKRISSDILVSLFGSFDQQRGFIIEELLSHIEKLPTKRIQKKLRKVGNQNIYITDFTFTLMSMLENINCYSFCNQMKDIAPENIDLLKNEYKKQEEFLFNIVEHINDTILERFFKNPSALRYVIDNFVQDLLLLISSPQWPVTEKILSSLLKRLLSVYSPSMQVSANIETICLQLIGNIGSTIFDIKCSTRDHEDNNLIKMINYPETLPHFFKSFEECIAYNETIKCRRSATRFLWNLRLGTILILEEYTKDAKEQIITVDNELKKILEQIKDGGLGPELENREADFSTIKLDYFSILHAFELLNLYDPYLKLILSLLAKDKIKLRSTAIKCLSMLASKDKVILSNPMVKETIHRRLNDSSASVKDAILDLVSINSSYFEFYQQINNNYNDDSIMVRKHVLRINEKMYDETNDIVTKVYVIARILMKICDEEDNIIDMARLILLNRWILKVHEVLDQPEKLKEISSSVLLVMSRVAIMNEKCSQLFDLFLNFYLLNKEAHSKEAYDKITHVLTILTDFLVQKIVELNSDDTNEKNSIVDKQNFLNLLAKFADSTVSFLTKDHITALYPYMVSDEKSDFHYYILQVFRCTFEKLANFKQKFLYDLETTLLSRLPKMNVREIDEAMPLIWSVATHRHDTARVAKACSSCLSHLHPYINKANNEEAAIVVDGKLQRLIYLSTGFARFCFPKPSNDKIAFLQEGETLYEHITKCLLVLSKDKITHVIRRVAVKNLTKLCGNHPKLFNSRHVLHLLDKEFQSDQLDIKLVILESLYDLFLLEERKSVRNTGVNSTLSSNSILKKKLLKTNRVEFANDGVCSALATRFLDNILQLCLLRDLKNSLVAIRLLKLILKFGYTNPSHSIPTVIALFASTSQYIRHVAYELLEDLFEKYETLVFSSLSRGVTKAIHYSIHTDEKYYYKHDHFLSLLEKLCGTGKKNGPKFFKVLKRIMQSYLDDITDLTSTNSSVQKSIFVLCTNISNITFVSQYDLVSLLKTIDLTTDRLKEVIMDEIGDNVSSLSVSEEKLSGIILIQLSLQDLGTYLLHLYGLRDDVLLLDIVEESELKNKQLPAKKPDISKFSAQLENIEQYSSNGKLLTYFRKHVKDT
notes: Scc2, cohesin loader subunit, S. cerevisiae, residues 133-1493; also called Scc2E819C; source: prepared as described in Collier et al., 2020 (pACEbac1 plasmid); purified
Regarding B3, the binding result in test [3] is “binds”.

Values taken from publication PMC9467508, “DNA passes through cohesin’s hinge as well as its Smc3–kleisin interface” (eLife, 2022).
